We go through 1 molecule from paper PMC13541614 (Nature Methods, 2026).

This test concerns the target H5N1 influenza hemagglutinin (HA) of A/Vietnam/1203/2004, native (wild type) (Influenza A virus A/Vietnam/1203/2004 …, UniProt Q5EP31, strain). The test is described as follows: BLI. The settings on record: both partners purified.

B1: AZD3152 (anti-SARS-CoV-2 RBD antibody), IgG (antibody, V domains shown)
VH: EVQLVESGGGLVQPGRSLRLSCAASGFPFDDYAIHWVRLAPGKGLEWVSSISWDSGSIGYADSVKGRFTISRDNAKNSLYLQMNSLRAEDTALYYCAKGAFPGYSSGWYYGLEVWGQGTTVTVSS
VL: QSVVTQPPSASGSLGQSVTISCTGTSSDVGGYNYVSWYQQHPGKAPKLMIFEVSKRPSGVPDRFSGSKSGNTASLTVSGLQAEDEADYYCSSYAGNKGVFGGGTKLTVL
notes: also called control antibody; source: Expi293F, transfected, purified (HiTrap MabSelect PrismA); copies: 2 + 2
On to B1, for which the binding result is on record as “no binding (tested: 100 nM)”.
